Key:
phthalyl amidase [1] = target: T1, phthalyl amidase (Xanthobacter agilis, UniProt P0C2Y0); test: Chiral and additional substrate selectivity of phthalyl amidase; type: biochemical; details: Table 13; for Relative Activity: III = 100, 0.009 mg (0.6 units) enzyme, 2.5 μmol substrate, buffer A, 30° C.
T1 construct: 42-aa signal peptide removed
Experimental: Several additional substrates were tested in a total volume of 1 ml. […] Reactions were stopped by the addition of methanol, and phthalic acid formation was monitored by HPLC.

Xanthobacter agilis = test: Induction of phthalyl amidase in Xanthobacter agilis cultures; type: cell-based; details: for Total units/mg protein: cell-free lysate, chromogenic substrate II
Experimental: Three compounds at different concentrations were added to aerated cultures of the organism growing at 30° C. in Bac MI medium. The compounds tested were phthalate (PAA), phthalyl glycine (PAG), and PMBL. Cells of Xanthobacter agilis were grown with aeration for 24 hours. This vegetative culture was used to inoculate Bac MI medium (50 ml) containing different concentrations of the compounds to be tested. After 48 hours growth under standard conditions, cells were harvested by centrifugation and wet weight of the cells was determined. Crude cell extracts were prepared by lysozyme treatment of the cells as in Example 1. Suspensions were briefly sonicated to break up the viscous suspension. A cell-free supernatant was obtained by centrifugation of the suspension at 14,000 rpm for 15 minutes.
Enzyme activity in cell-free lysates was determined by monitoring conversion of the chromogenic substrate 4-(2'-carboxy-N-benzoyl)amino-2-carboxy-nitrobenzene (II) to 2-nitro-5-amino benzoic acid and phthalic acid, a reaction catalyzed by phthalyl amidase as shown below: [drawing 4]
The assay reaction mixture (1 ml) consisted of 0.3 μmol of the chromogenic substrate (II) and 0.001-0.5 μg of enzyme preparation in 50 mM potassium phosphate buffer, pH 8.0 (buffer A). The enzymatic reaction was conducted at 30° C. for 10 minutes and the appearance of product was monitored at 380 nm (or 430 nm). The amount of substrate hydrolyzed was calculated from a standard curve of the amine product.

[2] = target: phthalyl-L-Asp-L-Phe-OMe (compound XIV)
phthalyl amidase [3] = target: T2, phthalyl amidase (Xanthobacter agilis, UniProt P0C2Y0); test: Optimum reaction temperature; type: biochemical; details: substrate III, 50 mM potassium phosphate, pH 8.2
T2 construct: 42-aa signal peptide removed
T2 sequence (P0C2Y0 whole entry, looked up): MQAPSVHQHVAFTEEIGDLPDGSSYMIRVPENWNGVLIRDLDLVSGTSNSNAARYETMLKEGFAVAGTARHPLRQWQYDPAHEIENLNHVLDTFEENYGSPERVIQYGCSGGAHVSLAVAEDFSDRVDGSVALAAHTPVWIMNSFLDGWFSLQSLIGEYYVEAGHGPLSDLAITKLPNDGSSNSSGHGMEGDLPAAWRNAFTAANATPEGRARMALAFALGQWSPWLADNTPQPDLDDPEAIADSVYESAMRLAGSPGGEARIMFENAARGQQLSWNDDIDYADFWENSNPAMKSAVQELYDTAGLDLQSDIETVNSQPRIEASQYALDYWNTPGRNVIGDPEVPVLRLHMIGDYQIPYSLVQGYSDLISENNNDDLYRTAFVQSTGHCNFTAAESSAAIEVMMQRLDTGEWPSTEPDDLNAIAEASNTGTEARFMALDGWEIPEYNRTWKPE
Experimental: Test reactions were carried out similar to Example 5 except that all incubations were performed in 50 mM potassium phosphate buffer at pH 8.2. Solutions of the substrate were pre-incubated for 5 minutes at temperatures between 2° and 60° C. The enzymatic reaction was initiated by the addition of phthalyl amidase and stopped by the addition of 1 ml methanol. Specific activity of the enzyme was determined by monitoring the hydrolysis of III by HPLC as in Example 5.

phthalyl amidase [4] = target: T2, phthalyl amidase; test: Effect of pH on phthalyl amidase activity (substrate III, HPLC); type: biochemical; details: 50 mM potassium phosphate, 32° C.
Experimental: The effect of pH on the reaction rate of the analytical scale purified enzyme was determined using phthalamido carbacephem (III) as substrate. [drawing 5]
A typical reaction mixture consisted of 1 ml total volume and contained 0.1 mM III, 0.1 μM phthalyl amidase in 50 mM potassium phosphate buffer (pH 5.5-9.0) at 32° C. for 20 minutes. The reactions were stopped by the addition of 1 ml methanol. After removal of precipitate by centrifugation, an aliquot of the supernatant fraction (typically 30 μ) was monitored for the beta-lactam nucleus and phthalic acid by HPLC using a Zorbax C8 column (0.46×15 cm; MacMod Analytical Inc., Chadds Ford, Pa.). The two reaction products were eluted by a mobile phase constructed as continuous mixed gradients from (a) 1% ACN (acetonitrile)/0.2% TFA (trifluoroacetic acid) and (b) 80% ACN/0.2% TFA as follows: 1) 0% (b), 3 min; 2) 0-50% (b), 0.5 min; 3) 50-100% (b), 3 min; 4) 100% (b), 2.5 min; 5) 100-0% (b), 0.1 min; and 6) 0% (b), 5 min. At a flow rate of 1.5 ml/min, retention times of the beta-lactam nucleus and phthalic acid, as measured at 254 nm, were 2.3 and 7.2 min, respectively.

phthalyl amidase [5] = target: T2, phthalyl amidase; test: Stability of phthalyl amidase (ionic strength, pH, temperature); type: physicochemical
Experimental: The stability of phthalyl amidase at pH values ranging from 6-9 was determined as described in Example 5 at 30° C. in both 20 and 200 mM potassium phosphate buffer. […] In 200 mM buffer, the enzyme retained at least 80% of its activity for 100 hours irrespective of the pH of the incubating medium.
The phthalyl amidase enzyme was also tested for stability at varying temperatures. The enzyme was incubated at pH 8.2 in the temperature range of 4°-50° C. for 48 hours in 50 and 200 mM phosphate buffer. […] In 200 mM buffer, 80% of the enzyme activity was retained in temperatures up to 35° C. and 30% of the enzyme activity was retained after 48 hours incubation at 40° C.

phthalyl amidase [6] = target: T2, phthalyl amidase; test: Optimum salt concentration; type: biochemical; details: 32° C., substrate III
Experimental: Test reactions were carried out similar to Example 6 except that buffer concentrations ranging from 10 to 200 mM at 32° C. were examined. All other conditions and analyses were the same.

## O=C(O)c1ccccc1C(=O)Nc1ccccc1 [Compound XXXI]
Phthalyl amidase [1]
  substrate selectivity (in words): twice
  Relative Activity: 200

## O=C(Nc1ccccc1)c1ccccc1S(=O)(=O)O [XXXII]
Phthalyl amidase [1]
  substrate selectivity (in words): poor substrates
  Relative Activity: 0.0

## O=C(O)c1ccccc1C(=O)N[C@H](C(=O)O)c1ccccc1 [Compound XXX]
Phthalyl amidase [1]
  substrate selectivity (in words): poor substrates
  Relative Activity: 1.3
Phthalyl amidase [1]; listed as L isomer
  substrate selectivity (in words): extremely poor substrate

## O=C(O)CNC(=O)c1ccccc1C(=O)O [PAG, phthalyl glycine]
Xanthobacter agilis; Table 1 summary
  effect on wet weight cell mass (in words): increased
Xanthobacter agilis; inducer addition 1 mg/ml
  Units/g cells: 1.04 Units/g cells
  Total units/mg protein: 0.35 µmol/min/mg
Xanthobacter agilis; inducer addition 5 mg/ml
  Units/g cells: 9.4 Units/g cells
  Total units/mg protein: 4.4 µmol/min/mg
Xanthobacter agilis; inducer addition 5 mg/ml, 48 hours growth in Bac MI medium
  Cell weight: 0.5 g/50 ml

B1: phthalyl amidase (mature enzyme, purified from Xanthobacter agilis) (enzyme)
chain: QAPSVHQHVAFTEEIGDLPDGSSYMIRVPENWNGVLIRDLDLVSGTSNSNAARYETMLKEGFAVAGTARHPLRQWQYDPAHEIENLNHVLDTFEENYGSPERVIQYGCSGGAHVSLAVAEDFSDRVDGSVALAAHTPVWIMNSFLDGWFSLQSLIGEYYVEAGHGPLSDLAITKLPNDGSSNSSGHGMEGDLPAAWRNAFTAANATPEGRARMALAFALGQWSPWLADNTPQPDLDDPEAIADSVYESAMRLAGSPGGEARIMFENAARGQQLSWNDDIDYADFWENSNPAMKSAVQELYDTAGLDLQSDIETVNSQPRIEASQYALDYWNTPGRNVIGDPEVPVLRLHMIGDYQIPYSLVQGYSDLISENNNDDLYRTAFVQSTGHCNFTAAESSAAIEVMMQRLDTGEWPSTEPDDLNAIAEASNTGTEARFMALDGWEIPEYNRTWKPE
modifications: N-terminus blocked (attempts to sequence the N-terminus of the purified enzyme failed)
[2]
  Relative Activity (hydrolysis of the substrate by HPLC) (relative activity (compound III = 100.0)): 118

B2: phthalyl amidase: enzyme from Xanthobacter agilis that removes the phthalyl moiety from phthalyl-containing amides (protein)
chain: QAPSVHQHVAFTEEIGDLPDGSSYMIRVPENWNGVLIRDLDLVSGTSNSNAARYETMLKEGFAVAGTARHPLRQWQYDPAHEIENLNHVLDTFEENYGSPERVIQYGCSGGAHVSLAVAEDFSDRVDGSVALAAHTPVWIMNSFLDGWFSLQSLIGEYYVEAGHGPLSDLAITKLPNDGSSNSSGHGMEGDLPAAWRNAFTAANATPEGRARMALAFALGQWSPWLADNTPQPDLDDPEAIADSVYESAMRLAGSPGGEARIMFENAARGQQLSWNDDIDYADFWENSNPAMKSAVQELYDTAGLDLQSDIETVNSQPRIEASQYALDYWNTPGRNVIGDPEVPVLRLHMIGDYQIPYSLVQGYSDLISENNNDDLYRTAFVQSTGHCNFTAAESSAAIEVMMQRLDTGEWPSTEPDDLNAIAEASNTGTEARFMALDGWEIPEYNRTWKPE
Phthalyl amidase [3]
  enzyme activity below 10° C. and above 50° C. (in words): Little enzyme activity
  temperature of maximum reaction rate: 34 °C
Phthalyl amidase [4]; pH 7.0, substrate III 0.1 mM
  Specific Activity: 125.4 μmol/min/μmol enzyme
Phthalyl amidase [4]; pH 7.2, substrate III 0.1 mM
  Specific Activity: 130.4 μmol/min/μmol enzyme
Phthalyl amidase [4]; pH 7.4, substrate III 0.1 mM
  Specific Activity: 155.2 μmol/min/μmol enzyme
Phthalyl amidase [4]; pH 7.6, substrate III 0.1 mM
  Specific Activity: 172.5 μmol/min/μmol enzyme
Phthalyl amidase [4]; pH 7.8, substrate III 0.1 mM
  Specific Activity: 184.2 μmol/min/μmol enzyme
Phthalyl amidase [4]; pH 8.0, substrate III 0.1 mM
  Specific Activity: 195.3 μmol/min/μmol enzyme
Phthalyl amidase [4]; pH 8.2, substrate III 0.1 mM
  Specific Activity: 201.2 μmol/min/μmol enzyme
Phthalyl amidase [4]; pH 8.4, substrate III 0.1 mM
  Specific Activity: 208.0 μmol/min/μmol enzyme
Phthalyl amidase [4]; pH 8.6, substrate III 0.1 mM
  Specific Activity: 181.7 μmol/min/μmol enzyme
Phthalyl amidase [4]; pH 8.8, substrate III 0.1 mM
  Specific Activity: 185.1 μmol/min/μmol enzyme
Phthalyl amidase [4]; pH 9.0, substrate III 0.1 mM
  Specific Activity: 33.1 μmol/min/μmol enzyme
Phthalyl amidase [5]
  Optimum ionic strength for stability: ≥ 200 mM
  optimum stability pH: 8.0±0.4
  pH range in which the enzyme is stable: 6-9
Phthalyl amidase [5]; 20 mM potassium phosphate buffer, any pH 6-9, 30° C.
  time within which all enzyme activity was lost: ≤ 2 h
Phthalyl amidase [5]; 50 mM phosphate buffer, pH 8.2, incubation temperature above 40° C.
  time within which all enzyme activity was lost: ≤ 48 h
Phthalyl amidase [5]; 50 mM phosphate buffer, pH 8.2, temperatures below 25° C., 48 hours
  enzyme activity retained: 90%
Phthalyl amidase [5]; 200 mM phosphate buffer, pH 8.2, 40° C., 48 hours
  enzyme activity retained: 30%
Phthalyl amidase [5]; 200 mM potassium phosphate buffer, pH 6-9, 30° C., 100 hours
  enzyme activity retained: at least 80%
Phthalyl amidase [5]; high salt (200 mM)
  temperature up to which good activity is retained: up to 40 °C
Phthalyl amidase [5]; low salt (50 mM)
  temperature up to which good activity is retained: up to 30 °C
Phthalyl amidase [6]; K Phosphate buffer 10 mM
  Specific Activity: 148 μmol/min/μmol enzyme
Phthalyl amidase [6]; K Phosphate buffer 50 mM
  Specific Activity: 300 μmol/min/μmol enzyme
Phthalyl amidase [6]; K Phosphate buffer 100 mM
  Specific Activity: 350 μmol/min/μmol enzyme
Phthalyl amidase [6]; K Phosphate buffer 200 mM
  Specific Activity: 360 μmol/min/μmol enzyme
Phthalyl amidase [6]; NH4 Acetate buffer 10 mM
  Specific Activity: 25 μmol/min/μmol enzyme
Phthalyl amidase [6]; NH4 Acetate buffer 50 mM
  Specific Activity: 50 μmol/min/μmol enzyme
Phthalyl amidase [6]; NH4 Acetate buffer 100 mM
  Specific Activity: 75 μmol/min/μmol enzyme
Phthalyl amidase [6]; NH4 Acetate buffer 200 mM
  Specific Activity: 100 μmol/min/μmol enzyme
Phthalyl amidase [6]; Tris-HCl buffer 10 mM
  Specific Activity: 73 μmol/min/μmol enzyme
Phthalyl amidase [6]; Tris-HCl buffer 50 mM
  Specific Activity: 230 μmol/min/μmol enzyme
Phthalyl amidase [6]; Tris-HCl buffer 100 mM
  Specific Activity: 275 μmol/min/μmol enzyme
Phthalyl amidase [6]; Tris-HCl buffer 200 mM
  Specific Activity: 300 μmol/min/μmol enzyme
